Data from patent US20050074865.

Assays:
[1] = target: recombinant human TNFα (RDI) (UniProt P01375)
[2] = target: recombinant human TNFα (RDI), P01375
recombinant human TNFα (RDI), P01375, sequence (P01375 77-233): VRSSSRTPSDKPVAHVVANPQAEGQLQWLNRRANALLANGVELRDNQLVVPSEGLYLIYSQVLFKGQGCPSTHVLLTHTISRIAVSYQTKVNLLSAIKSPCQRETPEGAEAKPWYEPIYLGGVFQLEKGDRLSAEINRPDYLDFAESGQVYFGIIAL

recombinant human TNFα (RDI), sequence (P01375 77-233): as above

Protein	inactivation of TNFα bioactivity, L929 cytotoxicity bioassay after overnight digestion [1]	cleavage of TNF, Western blot with anti-TNF antibody after overnight incubation [2]	inactivation of TNF bioactivity, L929 bioassay after overnight digestion, 100 nM mesotrypsin and 100 nM TNF [2]	inactivation of TNF bioactivity, L929 bioassay after overnight digestion, mesotrypsin at 86, 43 and 22 nM with 100 nM TNF [2]
ADAMTS4 (enzyme, UniProt O75173 213-837, looked up, species assumed) A disintegrin and metalloproteinase with thrombospondin motifs 4: FASLSRFVETLVVADDKMAAFHGAGLKRYLLTVMAAAAKAFKHPSIRNPVSLVVTRLVILGSGEEGPQVGPSAAQTLRSFCAWQRGLNTPEDSDPDHFDTAILFTRQDLCGVSTCDTLGMADVGTVCDPARSCAIVEDDGLQSAFTAAHELGHVFNMLHDNSKPCISLNGPLSTSRHVMAPVMAHVDPEEPWSPCSARFITDFLDNGYGHCLLDKPEAPLHLPVTFPGKDYDADRQCQLTFGPDSRHCPQLPPPCAALWCSGHLNGHAMCQTKHSPWADGTPCGPAQACMGGRCLHMDQLQDFNIPQAGGWGPWGPWGDCSRTCGGGVQFSSRDCTRPVPRNGGKYCEGRRTRFRSCNTEDCPTGSALTFREEQCAAYNHRTDLFKSFPGPMDWVPRYTGVAPQDQCKLTCQAQALGYYYVLEPRVVDGTPCSPDSSSVCVQGRCIHAGCDRIIGSKKKFDKCMVCGGDGSGCSKQSGSFRKFRYGYNNVVTIPAGATHILVRQQGNPGHRSIYLALKLPDGSYALNGEYTLMPSPTDVVLPGAVSLRYSGATAASETLSGHGPLAQPLTLQVLVAGNPQDTRLRYSFFVPRPTPSTPRPTPQDWLHRRAQILEILRRRPWAGRK	ADAMTS4 (column: Proteases that did not inactivate TNF)	–	–	–
mesotrypsin, activated with enterokinase (C-terminal myc and His6 tags, expressed from pDEST40) (protein) IVGGYTCEENSLPYQVSLNSGSHFCGGSLISEQWVVSAAHCYKTRIQVRLGEHNIKVLEGNEQFINAAKIIRHPKYNRDTLDNDIMLIKLSSPAVINARVSTISLPTAPPAAGTECLISGWGNTLSFGADYPDELKCLDAPVLTQAECKASYPGKITNSMFCVGFLEGGKDSCQRDSGGPVVCNGQLQGVVSWGHGCAWKNRPGVYTKVYNYVDWIKDTIAANSEQKLISEEDLNSAVDHHHHHH	–	but not by enzyme (mesotrypsin) to an appreciatable degree	at equimolar ratios, mesotrypsin achieved only marginal inactivation of TNF in solution	at these concentrations, the enzyme mesotrypsin, is either inactive or marginally active towards TNF
Cathepsin G (enzyme, UniProt P08311 21-244, looked up, species assumed) Cathepsin G: IIGGRESRPHSRPYMAYLQIQSPAGQSRCGGFLVREDFVLTAAHCWGSNINVTLGAHNIQRRENTQQHITARRAIRHPQYNQRTIQNDIMLLQLSRRVRRNRNVNPVALPRAQEGLRPGTLCTVAGWGRVSMRRGTDTLREVQLRVQRDRQCLRIFGSYDPRRQICVGDRRERKAAFKGDSGGPLLCNNVAHGIVSYGKSSGVPPEVFTRVSSFLPWIRTTMRS	Cathepsin G (column: Proteases that did not inactivate TNF)	–	–	–
